Measurements published in patent US20210380678A1 (SURROZEN OPERATING, published 2021).
Substitutions are numbered along the chain they refer to.

T1: cynomolgus ASGR1 extracellular domain (cynoASGR1 ECD) (cynomolgus, UniProt P07306 62-291 (human entry))
T1 construct: Cloned with a His/Avi tag
T1 chain: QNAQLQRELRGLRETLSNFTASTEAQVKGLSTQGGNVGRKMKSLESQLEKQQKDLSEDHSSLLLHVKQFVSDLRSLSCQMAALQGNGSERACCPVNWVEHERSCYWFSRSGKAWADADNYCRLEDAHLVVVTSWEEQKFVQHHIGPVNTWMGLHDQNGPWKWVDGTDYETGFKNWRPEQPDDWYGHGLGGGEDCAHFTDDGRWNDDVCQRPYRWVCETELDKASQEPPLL

T2: human ASGR1 extracellular domain (hASGR1 ECD) (human, UniProt P07306 62-291, biotinylated (His-Avi tag))
T2 construct: His-Avi tag at the N-terminus, biotinylated for BLI; also called human ASGR1 ECD
T2 sequence: T1 chain with A3S, R7E, L16F, A91T

T3: human ZNRF3 extracellular domain (hZNRF3 ECD) (human, UniProt Q9ULT6 56-219, biotinylated (His-Avi tag))
T3 construct: Expressed with a His-Avi tag at the N-terminus and biotinylated; also called ZRNF3
T3 sequence: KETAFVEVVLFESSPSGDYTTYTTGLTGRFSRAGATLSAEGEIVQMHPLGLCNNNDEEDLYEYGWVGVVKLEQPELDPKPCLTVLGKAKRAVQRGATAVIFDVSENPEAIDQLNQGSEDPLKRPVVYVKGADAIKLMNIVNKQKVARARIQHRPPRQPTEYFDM

B1: LP1-2E12 (antibody, V domains shown)
VH: DVQLQESGPGLVKPSQSLSLTCSVTGYSITSGYYWNWIRQFPGNKLEWMGSIGYDDTNHYNPSLKNRISITRDTSKNQFFLKLNSVTTEDTATYYCAGDYPFAFWGQGTLVTVSA
VL: DVVVTQTPLSLPVSFGDRVSISCRSSQSLANSYGNTYLSWYLHKPGQSPQLLIYGISNRFSGVPDRFSGSGSGTDFTLKISTIKPEDLGMYYCLQGTHQPLTFGAGTKLELK
notes: Hybridoma antibody as screened
B2: LP1-9C3 (antibody, V domains shown)
VH: QVTLKESGPGILQPSQTLSLTCSFSGFSLSTSYMGVSWIRKPSGKGLEWLAHIFWDDDKRYNPSLKSRLTISKDTSSNQVFLMITSVETADTATYYCGGPYYPFTYWGQGTLVTVSA
VL: B1 VL with R18Q, M90I, G96A, L101W, A105G, L111I
notes: as for B1
B3: LP1-1P13 (antibody, V domains shown)
VH: EVQLQQSGPELVKPGASVKISCKASGYSFTDYFMNWVKQSHGKSLEWIGRFNPFNGQTFYNQEFKGKATLTVDKSSSTAHMELRSLTSEDSAVYYCARRGRYDVYYVLDYWGQGTSVTVSS
VL: DIQMTQSPASLSASVGQTVIITCRTSENIYSNLAWYQQKQGKSPQLLVYAATNLADGVPSRFSGSGSGTQYYLKINSLQSEDFGSYYCQHFWGSTWTFGGGTKLDIK
notes: as for B1
B4: LP1-2I22 (antibody, V domains shown)
VH: B3 VH with D31G, S77D, V107A
VL: B3 VL with Q17E, T25A, A50G, P59T, Y71F, Y72S, N76D, S94T, D105E
notes: as for B1
B5: LP1-7I20 (antibody, V domains shown)
VH: EVKLVESGGGLVQPGGSLSLSCAASGFTFTDYYMSWVRQPPGKALEWLALIRNKANGYTTEYSASVKGRFTISRDNSQSILYLQMNALRAEDSATYYCAVTYGAYWGQGTLVTVSA
VL: DIQMTQSPASLSASVGETVTITCRTSENIYSYLAWYQQKQGKSPQLLVYNAKTLAKGVPSRFSGSGSGTQFSLKINGLQPEDFGNYYCQHHYGTPYTFGGGTKVEIK
notes: as for B1
B6: LP1-8M24 (antibody, V domains shown)
VH: QVQLQQSGAELARPGASVKLSCKASGYTFTNYGINWVKQRTGQGLEWIGEIFPRSDNTFYNEKFKGKATLTADKSSTTAYMELRSLTSEDSAVYFCARKGRDYGTSHYFDYWGQGTTLTVSS
VL: DIQMTQSPASLSVSVGETVTITCRISENIYSNLAWYQQKQGKSPHLLVYAAINLADGVPSRFSGSGSGTQFSLKINSLQSEDFGSYYCQHFWGTPFTFGSGTKLEIK
notes: as for B1
B7: LP1-6H3 (antibody, V domains shown)
VH: QAYLQQSGAELVRPGASVKMSCKASGYTFSRFDMHWVKQTPRQGLEWIGVIYPGNGDTSYNQKFRDKASLTVDKSSSTAYMQLSSLTSEDSAVYFCASSYYGNPWGQGTTLTVSS
VL: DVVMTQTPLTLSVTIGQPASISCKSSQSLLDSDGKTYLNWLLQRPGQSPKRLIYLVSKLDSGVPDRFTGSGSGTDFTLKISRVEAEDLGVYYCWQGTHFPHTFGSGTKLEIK
notes: as for B1
B8: LP1-1N15 (antibody, V domains shown)
VH: EVQLQQSGPELVKPGASVKMSCKASGYTFTDYYMNWVKQSHGESLEWIGRVIPSNGGTNYNQKFKGKATLTVDKSLTTAYMQLNSLTSEDSAVYFCARGMDYWGPGTSVTVSS
VL: DIKMTQSPSSMYASLGERVTITCKASQDINSHLSWFQQKPGKSPKTLIIRANRLVDGVPSRFSGSGSGQDYSLTISSPEYEEMGIYYCLQYDEFPFTFGGGTKLEIK
notes: as for B1
B9: LP1-9M16 (antibody, V domains shown)
VH: EVQLQQSGPELVKPGASVKMSCKASGYTFTDYYMNWVKQSHGKSLEWIGRVNPNNGGSNYNQKFKGKATLTVDKSLSTAYMQLNSLTSEDSAVYYCASRNFDVWGAGTTVTVSS
VL: B8 VL with H32Y, I49Y, V55A, S77N, P78L, E82D, F96L, G100A, I106L
notes: as for B1
B10: LP1-3E20 (antibody, V domains shown)
VH: QVQLQQSGAELAKPGASVKMSCKASGYTFTSYWIHWVKQRPGQGLEWIGYINPSSGYAEYNQKFKVRATLTADKSSSTAYMQLSSLTSEDSAVYYCARESYYSFDYTMDYWGQGTSVTVSS
VL: DIKMTQSPSSMYASLGERVTITCKASQDINSYLSWFQQKPGKSPKTLIYRANRLVDGVPSRFSGSGSGQDYSLTISSLEYEDMGIYYCLQYDDLWTFGGGTKLEIK
notes: as for B1
B11: LP1-10C22 (antibody, V domains shown)
VH: EVQLVESGGDLVKPGGSLKLSCAASGFTFSSYGMSWVRQTPDKRLEWVASISSGGSYTYYPDSVKGRFTISRDNAQNTLYLQMSSLKSEDTAMYYCVRHEEYGKSGFAYWGQGTLITVSA
VL: DVLMTQTPLSLPVSLGDQASISCRSSQGIVHSNGNIYLEWYLQKPGQSPKLLIYKVSNRFSGVPDRFSGSGSGTDFTLKISRVEAEDLGVYYCFQGSHVPPTFGGGTKLEIK
notes: as for B1
B12: LP1-7B13 (antibody, V domains shown)
VH: EVQLQQSGPEVVKPGASVKMSCKTSGFTFTDYYMNWVKQGHGKSLEWIGRVNPSNDDTRYNQKFKGKATLTVDKSLSTAYMQLNSLTSEDSAVYYCTRWFYFDYWGQGTTLTVSS
VL: DIVLTQSPATLSVTPGDRVSLSCRASQSISNYLHWYQQKSHESPRLLIKFASQSISGIPSRFSGSGSGTDFTLTINSVETEDFGMYFCQQSNSWPLTFGAGTKLELK
notes: as for B1
B13: LP1-1F8 (antibody, V domains shown)
VH: EVKLVESGGGLVKPGGSLKLSCAASGFTFSTYTMSWVRQTPAKRLEWVATISSIGVNTYYPDSVKGRFTISRDNARNTLYLQVSSLRSEDTAMYYCARHVDYYDGISFDYWGQGTTLTVSS
VL: DIVMSQSPSSLAVSAGEKVTMSCKSSQSLFNSRTRKNYLAWYQQKPGQSPKLLIYWASTRESGVPDRFTGSGSGTDFTLTISSVQAEDLAVYYCKQSYYLLTFGAGTKLELK
notes: as for B1
B14: LP1-1P5 (antibody, V domains shown)
VH: QVQLQQSGPELVRPGTSVKISCKASGYTFLTYWMNWVKQRPGQGLEWIGQIFPATGITYYSEMFKDKATLTEDTSSTTAYMQLSSLTSEATAVYFCARRRAYHSNFFDYWGQGTTLTVSS
VL: DIVMTQSQKFMSTSVGDRVSVTCKASQNVGTNVAWYQQKPGQSPKALIYSASYRYSGVPDRFTGSGSGTDFTLTISNVQSEDLAEYFCQQYNSYPLTFGAGTKLELK
notes: as for B1
B15: LP1-3A24 (antibody, V domains shown)
VH: EVQLQQSGPELVKPGASVKMSCKASGYTFTDYYINWVRQSHGKSLEWIGRVIPSNGGSNYNQKFKGKATLTVDKSLSTAYMHLNSLTSEDSAVYYCATQLGRWGQGTLVTVSA
VL: B14 VL with T31S, Y36F, A51S, S76T, Y94F
notes: as for B1
B16: LP1-2I13 (antibody, V domains shown)
VH: EVQLVESGGGLVKPGGSRKLSCAASGFTFSDYGMHWVRQAPEKGLEWVAYISSGSSTIYYADTVKGRFTISRDNAKNTLFLQMTSLRSEDTAMYYCSRKGGFGDYEKSYAMDYWGQGTSVTVSS
VL: DIQMTQSPASLSASVGETVTITCRASENIYSYLVWYQQKQGKSPQLLVYNAKTLAEGVPSRFSGSGSGTQFSLKINSLQPEDFGSYYCQHHYGTWTFGGGIKLEIK
notes: as for B1
B17: 028S-B04 (antibody, V domains shown)
VH: QVQLVQSGAEVKKPGASVKVSCKASGYTFRRYPMHWVRQAPGQGLEWMGIINPSGGSTSYAQKFQGRVTMTRDTSTSTVYMELSSLRSEDTAVYYCARDKVGAIDYWGQGTLVTVSS
VL: DIQMTQSPSSLSASVGDRVTITCRASQGISNYLAWYQQKPGKAPKLLIYAASSLQRGVPSRFSGSGSGTDFTLTISSLQPEDFATYYCQQSYSTPLTFGGGTKVEIK
B18: 028S-C04 (antibody, V domains shown)
VH: B17 VH with R30T, P33Y, D99G, K100G, V101S, A103W, I104L
VL: B17 VL with G28S, N31T, Y32W, S53T, R56S, T94S
B19: 028S-D09 (antibody, V domains shown)
VH: B17 VH with R30T, Y32H, P33Y, D99G, K100S, V101L, A103Y, I104F, Y106L, Q109R
VL: not shown

Target: T1, cynomolgus ASGR1 extracellular domain …
Assay: hybridoma screening on recombinant ECD

binding result	Binder
binds	B1
binds	B2
binds	B3
binds	B4
binds	B5
binds	B6
binds	B7
binds	B8
binds	B9
binds	B10
binds	B11
binds	B12
binds	B13
binds	B14
binds	B15
binds	B16

target: T2, human ASGR1 extracellular domain …; assay: hybridoma screening on recombinant ECD

binding result	Binder
binds	B1
binds	B2
binds	B3
binds	B4
binds	B5
binds	B6
binds	B7
binds	B8
binds	B9
binds	B10
binds	B11
binds	B12
binds	B13
binds	B14
binds	B15
binds	B16

target: T3, human ZNRF3 extracellular domain …; assay: BLI (Octet), biotinylated antigen on SA sensor, 1:1 fit
Protocol: (§1) Binding characterization of recombinant Fabs or IgG' s was carried out using Bio-Layer Interferometry (BLI) using the Octet Red 96 platform (PALL ForteBio, Fremont, Calif.) with streptavidin (SA) coated biosensors (PALL ForteBio,). […] Following immobilization, sensors were dipped into samples containing test molecules at seven concentrations. Values for KD were determined by fitting the resulting data with a 1:1 binding model.

Kd [nM]	Binder
256	B17
164	B18
354	B19

target: T3, human ZNRF3 extracellular domain …; assay: BLI (Octet) KD grade: ** = 1 uM > KD >= 100 nM
Protocol: as §1

KD [nM]	Binder
100 to 1000	B17
100 to 1000	B18
100 to 1000	B19
